Assay results reported in publication doi:10.1101/2024.06.06.597711.
Substitutions are numbered along the chain they refer to.

Assays:
[1] = molecular target: T1, CtTrl1-LIG WT (tRNA ligase LIG domain) (Chaetomium thermophilum (syn. …, UniProt G0S6G2 1-414)); assay: EMSA
T1 sequence: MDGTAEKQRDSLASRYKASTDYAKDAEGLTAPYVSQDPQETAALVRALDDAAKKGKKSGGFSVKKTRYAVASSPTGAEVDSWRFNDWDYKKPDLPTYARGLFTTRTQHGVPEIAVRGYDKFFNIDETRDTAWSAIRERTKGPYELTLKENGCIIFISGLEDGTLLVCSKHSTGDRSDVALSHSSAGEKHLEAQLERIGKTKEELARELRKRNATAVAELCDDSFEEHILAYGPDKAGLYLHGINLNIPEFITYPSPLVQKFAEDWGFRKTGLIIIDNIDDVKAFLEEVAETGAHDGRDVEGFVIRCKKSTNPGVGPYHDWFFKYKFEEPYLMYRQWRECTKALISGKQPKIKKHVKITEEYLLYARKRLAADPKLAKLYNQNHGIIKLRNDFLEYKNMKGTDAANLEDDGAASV

CtTrl1-LIG K148N = molecular target: T2, CtTrl1-LIG K148N (Chaetomium thermophilum (syn. …, UniProt G0S6G2 1-414, K148N)); assay: EMSA
T2 sequence: T1 sequence with K148N

[2] = molecular target: T1, CtTrl1-LIG WT (tRNA ligase LIG domain); assay: X-ray crystallography

B1: ASL-4U (structured_RNA)
RNA: AUCUGGAUUUUGCCAGACUGAAG
modifications: 5'-phosphate; terminal phosphate at 3' end (ordered as [Phos]; 2'-P form in the EMSA not stated)
B1: binds [1]; binds (CtTrl1-LIG K148N).

B2: sctRNAPhe-3'exon-7nt (dsRNA)
RNA 1: AUCUGGA
RNA 2: AUCUGGA
modifications: 5'-phosphate; one strand 5'-adenylylated (AppRNA) in the crystal
B2: binds [2].
